Results: the supplement of paper PMC11246515
± gives the standard deviation of the averaged measurements.

Assay: total protein half-life in vivo (active degradation + dilution); higher = more stable protein
[1] = E. coli NCM3722 delta-clpP delta-lon delta-hslV, growth: N-lim chemostat, doubling time 6 h
[2] = E. coli NCM3722 delta-clpP, growth: N-lim chemostat, doubling time 6 h
[3] = E. coli NCM3722 delta-hslV, growth: N-lim chemostat, doubling time 6 h
[4] = E. coli NCM3722 delta-lon, growth: N-lim chemostat, doubling time 6 h
[5] = E. coli NCM3722 delta-smpB, growth: N-lim chemostat, doubling time 6 h
[6] = wild type E. coli NCM3722, growth: C-lim chemostat, doubling time 3 h
[7] = wild type E. coli NCM3722, growth: C-lim chemostat, doubling time 6 h
[8] = wild type E. coli NCM3722, growth: C-lim chemostat, doubling time 12 h
[9] = wild type E. coli NCM3722, growth: N-lim chemostat, doubling time 12 h
[10] = wild type E. coli NCM3722, growth: P-lim chemostat, doubling time 6 h
[11] = wild type E. coli NCM3722, growth: P-lim chemostat, doubling time 12 h
[12] = wild type E. coli NCM3722, growth: N-lim chemostat, doubling time 6 h

Sequence	total protein half-life in vivo [1]	total protein half-life in vivo [2]	total protein half-life in vivo [3]	total protein half-life in vivo [4]	total protein half-life in vivo [5]	total protein half-life in vivo [6]	total protein half-life in vivo [7]	total protein half-life in vivo [8]	total protein half-life in vivo [9]	total protein half-life in vivo [10]	total protein half-life in vivo [11]	total protein half-life in vivo [12]
MNMLALTIILPLIGFVLLAFSRGRWSENVSAIVGVGSVGLAALVTAFIGVDFFANGEQTYSQPLWTWMSVGDFNIGFNLVLDGLSLTMLSVVTGVGFLIHMYASWYMRGEEGYSRFFAYTNLFIASMVVLVLADNLLLMYLGWEGVGLCSYLLIGFYYTDPKNGAAAMKAFVVTRVGDVFLAFALFILYNELGTLNFREMVELAPAHFADGNNMLMWATLMLLGGAVGKSAQLPLQTWLADAMAGPTPVSALIHAATMVTAGVYLIARTHGLFLMTPEVLHLVGIVGAVTLLLAGFAALVQTDIKRVLAYSTMSQIGYMFLALGVQAWDAAIFHLMTHAFFKALLFLASGSVILACHHEQNIFKMGGLRKSIPLVYLCFLVGGAALSALPLVTAGFFSKDEILAGAMANGHINLMVAGLVGAFMTSLYTFRMIFIVFHGKEQIHAHAVKGVTHSLPLIVLLILSTFVGALIVPPLQGVLPQTTELAHGSMLTLEITSGVVAVVGILLAAWLWLGKRTLVTSIANSAPGRLLGTWWYNAWGFDWLYDKVFVKPFLGIAWLLKRDPLNSMMNIPAVLSRFAGKGLLLSENGYLRWYVASMSIGAVVVLALLMVLR	7.03 ± 0.33 h	7.32 ± 0.33 h	6.62 ± 0.33 h	5.89 ± 0.59 h	6.017 ± 0.032 h	3.23 h	7.19 ± 1.1 h	12.1 ± 1.4 h	15.6 h	6.74 ± 0.88 h	11.1 ± 1.1 h	
MNMLEKIQSQLEHLSKSERKVAEVILASPDNAIHSSIAAMALEANVSEPTVNRFCRSMDTRGFPDFKLHLAQSLANGTPYVNRNVNEDDSVESYTGKIFESAMATLDHVRHSLDKSAINRAVDLLTQAKKIAFFGLGSSAAVAHDAMNKFFRFNVPVVYSDDIVLQRMSCMNCSDGDVVVLISHTGRTKNLVELAQLARENDAMVIALTSAGTPLAREATLAITLDVPEDTDIYMPMVSRLAQLTVIDVLATGFTLRRGAKFRDNLKRVKEALKESRFDKQLLNLSDDR	6.3 ± 1.1 h	4.86 ± 0.47 h	3.12 ± 0.53 h	3.65 ± 0.91 h	3.23 ± 0.018 h	2.26 ± 0.21 h	4.52 ± 1.7 h	5.45 ± 0.083 h	4.38 ± 0.15 h	2 ± 0.28 h	4.1 ± 1.5 h	3.77 ± 0.28 h
MNMTKGALILSLSFLLAACSSIPQNIKGNNQPDIQKSFVAVHNQPGLYVGQQARFGGKVINVINGKTDTLLEISVLPLDSYAKPDIEANYQGRLLARQSGFLDPVNYRNHFVTILGTIQGEQPGFINKVPYNFLEVNMQGIQVWHLREVVNTTYNLWDYGYGAFWPEPGWGAPYYTNAVSQVTPELVK		6.72 ± 0.84 h	6.43 ± 0.72 h		6.62 ± 0.25 h			14.6 h	12.8 ± 0.086 h	5.75 ± 0.59 h	12.6 ± 1 h	
MNNEPLRPDPDRLLEQTAAPHRGKLKVFFGACAGVGKTWAMLAEAQRLRAQGLDIVVGVVETHGRKDTAAMLEGLAVLPLKRQAYRGRHISEFDLDAALARRPALILMDELAHSNAPGSRHPKRWQDIEELLEAGIDVFTTVNVQHLESLNDVVSGVTGIQVRETVPDPFFDAADDVVLVDLPPDDLRQRLKEGKVYIAGQAERAIEHFFRKGNLIALRELALRRTADRVDEQMRAWRGHPGEEKVWHTRDAILLCIGHNTGSEKLVRAAARLASRLGSVWHAVYVETPALHRLPEKKRRAILSALRLAQELGAETATLSDPAEEKAVVRYAREHNLGKIILGRPASRRWWRRETFADRLARIAPDLDQVLVALDEPPARTINNAPDNRSFKDKWRVQIQGCVVAAALCAVITLIAMQWLMAFDAANLVMLYLLGVVVVALFYGRWPSVVATVINVVSFDLFFIAPRGTLAVSDVQYLLTFAVMLTVGLVIGNLTAGVRYQARVARYREQRTRHLYEMSKALAVGRSPQDIAATSEQFIASTFHARSQVLLPDDNGKLQPLTHPQGMTPWDDAIAQWSFDKGLPAGAGTDTLPGVPYQILPLKSGEKTYGLVVVEPGNLRQLMIPEQQRLLETFTLLVANALERLTLTASEEQARMASEREQIRNALLAALSHDLRTPLTVLFGQAEILTLDLASEGSPHARQASEIRQHVLNTTRLVNNLLDMARIQSGGFNLKKEWLTLEEVVGSALQMLEPGLSSPINLSLPEPLTLIHVDGPLFERVLINLLENAVKYAGAQAEIGIDAHVEGENLQLDVWDNGPGLPPGQEQTIFDKFARGNKESAVPGVGLGLAICRAIVDVHGGTITAFNRPEGGACFRVTLPQQTAPELEEFHEDM	6.66 ± 0.19 h	6.31 ± 0.4 h	6.32 ± 0.48 h	5.21 ± 0.13 h	5.88 ± 0.37 h	3.44 ± 0.035 h	6 ± 0.74 h	12.1 ± 1 h	10.7 ± 0.66 h	6.348 ± 0.059 h	11.6 ± 0.51 h	5.56 ± 0.21 h
MNNHATVQSSAPVSAAPLLQVSGALIAIIALILAAAWLVKRLGFAPKRTGVNGLKISASASLGARERVVVVDVEDARLVLGVTAGQINLLHKLPPSAPTEEIPQTDFQSVMKNLLKRSGRS	> 8 h					> 4 h		8.29 h	1.64 h			
MNNIAPQSPVMRRLTLQDNPAIARVIRQVSAEYGLTADKGYTVADPNLDELYQVYSQPGHAYWVVEYEGEVVGGGGIAPLTGSESDICELQKMYFLPAIRGKGLAKKLALMAMEQAREMGFKRCYLETTAFLKEAIALYEHLGFEHIDYALGCTGHVDCEVRMLREL	4.53 ± 0.45 h	3.93 ± 0.64 h	3.54 ± 0.28 h	3.77 ± 0.61 h	3.89 ± 0.23 h	2.95 ± 0.76 h	5.11 ± 0.59 h	6.43 ± 0.74 h	7.32 ± 0.57 h	5 ± 0.34 h	10.6 ± 2.3 h	4.37 ± 0.26 h
MNNIWWQTKGQGNVHLVLLHGWGLNAEVWRCIDEELSSHFTLHLVDLPGFGRSRGFGALSLADMAEAVLQQAPDKAIWLGWSLGGLVASQIALTHPERVQALVTVASSPCFSARDEWPGIKPDVLAGFQQQLSDDFQRTVERFLALQTMGTETARQDARALKKTVLALPMPEVDVLNGGLEILKTVDLRQPLQNVSMPFLRLYGYLDGLVPRKVVPMLDKLWPHSESYIFAKAAHAPFISHPAEFCHLLVALKQRV	3.79 ± 0.6 h	3.5 ± 0.15 h	3.33 h	3.66 ± 0.1 h	4.85 ± 1.8 h	3.39 ± 0.45 h	5.41 ± 0.43 h	12.1 ± 4.7 h	6.93 ± 1.4 h	5.93 ± 0.25 h		3.63 ± 0.25 h
MNNKGSGLTPAQALDKLDALYEQSVVALRNAIGNYITSGELPDENARKQGLFVYPSLTVTWDGSTTNPPKTRAFGRFTHAGSYTTTITRPTLFRSYLNEQLTLLYQDYGAHISVQPSQHEIPYPYVIDGSELTLDRSMSAGLTRYFPTTELAQIGDETADGIYHPTEFSPLSHFDARRVDFSLARLRHYTGTPVEHFQPFVLFTNYTRYVDEFVRWGCSQILDPDSPYIALSCAGGNWITAETEAPEEAISDLAWKKHQMPAWHLITADGQGITLVNIGVGPSNAKTICDHLAVLRPDVWLMIGHCGGLRESQAIGDYVLAHAYLRDDHVLDAVLPPDIPIPSIAEVQRALYDATKLVSGRPGEEVKQRLRTGTVVTTDDRNWELRYSASALRFNLSRAVAIDMESATIAAQGYRFRVPYGTLLCVSDKPLHGEIKLPGQANRFYEGAISEHLQIGIRAIDLLRAEGDRLHSRKLRTFNEPPFR [P0AE12]	6.26 ± 1.5 h	5.49 ± 1 h	5.31 ± 0.55 h	4.76 ± 0.66 h	4.37 ± 0.083 h	3.24 ± 0.42 h	6.34 ± 0.73 h	10.6 ± 0.36 h	8.24 ± 1.3 h	6.19 ± 0.32 h		4.51 ± 0.26 h
MNNLPLLNDLRVFMLVARRAGFAAVAEELGVSPAFVSKRIALLEQTLNVVLLHRTTRRVTITEEGERIYEWAQRILQDVGQMMDELSDVRQVPQGMLRIISSFGFGRQVVAPALLALAKAYPQLELRFDVEDRLVDLVNEGVDLDIRIGDDIAPNLIARKLATNYRILCASPEFIAQHGAPKHLTDLSALPCLVIKERDHPFGVWQLRNKEGPHAIKVTGPLSSNHGEIVHQWCLDGQGIALRSWWDVSENIASGHLVQVLPEYYQPANVWAVYVSRLATSAKVRITVEFLRQYFAEHYPNFSLEHA	5.43 ± 0.67 h	1.82 ± 0.43 h			1.16 h	0.948 ± 0.17 h	2.24 ± 0.21 h	3.54 ± 0.1 h		0.535 h		
MNNLPVVRSPWRIVILLLGFTFLYAPMLMLVIYSFNSSKLVTVWAGWSTRWYGELLRDDAMMSAVGLSLTIAACAATAAAILGTIAAVVLVRFGRFRGSNGFAFMITAPLVMPDVITGLSLLLLFVALAHAIGWPADRGMLTIWLAHVTFCTAYVAVVISSRLRELDRSIEEAAMDLGATPLKVFFVITLPMIMPAIISGWLLAFTLSLDDLVIASFVSGPGATTLPMLVFSSVRMGVNPEINALATLILGAVGIVGFIAWYLMARAEKQRIRDIQRARRG [P0AFL1]	5.96 h								> 16 h		10.3 h	
MNNMFEPPKNYNEMLPKLHKATFLNTLIYCILLVIYEYIPLITLPTKYVPPIKDHESFINWALSFGILPCAFAIFAYLISGALDLHNNAAKLLRVRYLWDKHLIIKPLSRRAGVNRKLNKDEAHNVMSNLYYPEVRKIEDKHYIELFWNKVYYFWIFFEFSIIALISFLIIFFCKQMDIFHVEGSLLSLFFFVILSFSVSGIIFALTVKPRTESQVGKIPDDKIKEFFTKNNIN	5.36 h		4.62 h		5.48 ± 0.069 h	2.94 h	4.97 ± 0.76 h	10.6 ± 0.83 h	7.86 h	5.56 ± 0.71 h	11.3 ± 1.6 h	5.04 h
